Substrate: CCCCC/C=C\C/C=C\C/C=C\C/C=C\CCCC(=O)NCCO
Conditions: Mus musculus; N18TG2
Description: Activity at FAAH in mouse N18TG2 cell membranes

B1: Fatty-acid amide hydrolase 1 (Mus musculus), O08914 (protein)
chain: MVLSEVWTALSGLSGVCLACSLLSAAVVLRWTRSQTARGAVTRARQKQRAGLETMDKAVQRFRLQNPDLDSEALLALPLLQLVQKLQSGELSPEAVLFTYLGKAWEVNKGTNCVTSYLTDCETQLSQAPRQGLLYGVPVSLKECFSYKGHASTLGLSLNEGVTSESDCVVVQVLKLQGAVPFVHTNVPQSMLSYDCSNPLFGQTMNPWKPSKSPGGSSGGEGALIGSGGSPLGLGTDIGGSIRFPSAFCGICGLKPTGNRLSKSGLKSCVYGQTAVQLSVGPMARDVDSLALCMKALLCEDLFRLDSTIPPLPFREEIYRSSRPLRVGYYETDNYTMPTPAMRRAVMETKQSLEAAGHTLVPFLPNNIPYALEVLSAGGLFSDGGCSFLQNFKGDFVDPCLGDLVLVLKLPRWFKKLLSFLLKPLFPRLAAFLNSMCPRSAEKLWELQHEIEMYRQSVIAQWKAMNLDVVLTPMLGPALDLNTPGRATGAISYTVLYNCLDFPAGVVPVTTVTAEDDAQMEHYKGYFGDMWDNILKKGMKKGIGLPVAVQCVALPWQEELCLRFMREVERLMTPEKRPS
  Km: 15 µM

— ChEMBL document CHEMBL1147236, “Semiplenamides A-G, fatty acid amides from a Papua New Guinea collection of the marine cyanobacterium Lyngbya semiplena” (J Nat Prod, 2003)
